Data reported in US20230174955A1.

B1: secreted mimi-virus P4H from Pichia (vector MMV-644; strains PP765, PP766, PP767), with 6X His tag at the C-terminus (protein)
chain: VLSKSCVSHFRNVGSLNSRDVNLKDDFSYANIDDPYNKPFVLNNLINPTKCQEIMQFANGKLFDSQVLSGTDKNIRNSQQMWISKNNPMVKPIFENICRQFNVPFDNAEDLQVVRYLPNQYYNEHHDSCCDSSKQCSEFIERGGQRILTVLIYLNNEFSDGHTYFPNLNQKFKPKTGDALVFYPLANNSNKCHPYSLHAGMPVTSGEKWIANLWFRERKFSHHHHHH

Assays:
[1] = molecular target: full length collagen (with foldON), expressed in Pichia strain PP654 (vector MMV-398); assay: cell-based or functional assay
[2] = molecular target: collagen secreted by strains PP766 and PP767 along with mimiP4H
[3] = molecular target: collagen substrate of the in-vitro hydroxylation reaction with purified secreted mimiP4H
[4] = molecular target: purified collagen derived from strain PP685, added to fermentation supernatant

Row | Molecule | hydroxylation level of collagen (mass spec of gel band; in vivo, PP654 in fermenters) [1] [%] | hydroxylation of secreted collagen in fermentation supernatant [2] | %HyP, colorimetric assay, in-vitro hydroxylation reaction [3] | hydroxylation of added purified collagen in unpurified fermentation supernatant [4]
1 | mimi-virus P4H (monomeric prolyl 4-hydroxylase), intracellular, expressed in Pichia strain PP654 from vector MMV-580 (enzyme) | 17 | – | – | –
2 | B1 | – | An increase in hydroxylation was observed for both the secreted collagen and added purified collagen | Ni-NTA purified mimiP4H showed 24% hydroxylation | All reactions showed an increase in the hydroxylation over the pre-reaction levels (~3%)
